Source: FireProtDB (doi:10.1021/bi052621g)
Where “and” joins values, the source holds several entries; their conditions need not be identical. Equal values may be shown once.

B1: Major seminal plasma glycoprotein PSP-I wild type, P35495 (protein)
chain: MKLGSAIPWALLFSTATLISTGWGLDYHACGGRLTDDYGTIFTYKGPKTECVWTLQVDPKYKLLVSIPTLNLTCGKEYVEILEGAPGSKSLGKFCEGLSILNRGSSGMTVKYKRDSGHPASPYEIIFLRDSQG
B2: Major seminal plasma glycoprotein PSP-II wild type, P35496 (protein)
chain: MKLGTAIPWALLLSTATLVSTARINGPDECGRVIKDTSGSISNTDRQKNLCTWTILMKPDQKVRMAIPYLNLACGKEYVEVFDGLLSGPSYGKLCAGAAIVFLSTANTMTIKYNRISGNSSSPFLIYFYGSSPGSEY

Settings: Sus scrofa, pH 7, Thermal, Hepes 20 mM, reversible: No, whole UniProt chain shown

| Protein | Tm (DSC, ZnCl2 5 mM) [°C] | unfolding enthalpy (calorimetric) (DSC, ZnCl2 5 mM) [kcal/mol] | unfolding enthalpy (calorimetric) (DSC) | Tm (CD) [°C] |
| --- | --- | --- | --- | --- |
| B1 | 51.1 | 17.4 | 18.4 kcal/mol and 20.8 kcal/mol | – |
| B2 | – | – | – | 52.6 |
